The record followed here is the nanobody polyreactivity screen of Harvey et al. (2022).

This series can be described thus: yeast display, Sf9 membrane polyspecificity reagent, FACS + sequencing; frameworks hold sequencing errors. The method, boiled down: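 Sorting gates, low and high (top ~1%), were placed on anti-HA fluorescence to track expression and on streptavidin fluorescence to track reagent binding. A clone's polyreactivity label is taken from the gate it came out of. The reagent was 10% biotinylated, detergent-solubilized Sf9 membrane, applied for 1 hour at 4 °C to galactose-induced yeast display cells.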
As to “QVQLVESGGGLVQAGGSLRLSCAASGSTFPRNAMGWYRLAPGKERELVAAITSGDSTYYADSVNGRFTISRDNAKNTVYLQKNSQKPEDTAVYYCGQGTQVTVSS”, the “polyreactivity (PSR sort gate)” value is on record as “low polyreactivity”.

In the case of “QVQLVESGGGLVQAGGSLRLSCAASGSTFPSNAMGWYRQAPGKESELVAAISDSGSTTYYADSVKGRFTISRDNAKNTVYLQMNSLKPEDTAVYYCNAYLRFVDVSLDYQLLLEHDYWGQGTQVTVSS”, the “polyreactivity (PSR sort gate)” value is listed as “low polyreactivity”.

Turning to “QVQLVESGGGLVQAGGSLRLSCAASGSTFPSYAMGWYRQAPGKERELVAAINSGGGTNYADSVKGRFTISRDNAKNTVYLQMNSLKPEDTAVYYCAKSRYDYTKTEGGYWGQGSQVTVSS”, the “polyreactivity (PSR sort gate)” value is reported as “low polyreactivity”.

Regarding “QVQLVESGGGLVQAGGSLRLSCAASGSTFPSYAMGWYRQAPGKERELVAAINSGGGTNYADSVKGRFTISRDNAKNTVYLQMNSLKPEDTAVYYCATDDPLSQINEQGMDYWGQGTQVTVSS”, the “polyreactivity (PSR sort gate)” value is on record as “low polyreactivity”.

Take “QVQLVESGGGLVQAGGSLRLSCAASGSTFPSYAMGWYRQAPGKERELVAAISRRSSRTYYADSVKGRFTISRDNAKNTVYLQMNSLKPEDTAVYYCNADAGRHSDEYGYDYWGQGTQVTVSS”: the “polyreactivity (PSR sort gate)” value is “high polyreactivity”.

For the sequence “QVQLVESGGGLVQAGGSLRLSCAASGSTFPVNAMGWYRQAPGKERELVARIRGSGGSTYYADSVKGRFTISRDNAKNTVYLQINSLKPEDTAVYYCAARYIGYSSYKYDYWGQGTQVTVSS”, the “polyreactivity (PSR sort gate)” value is “high polyreactivity”.

Take “QVQLVESGGGLVQAGGSLRLSCAASGSTFPVYAMGWYRQAPGKERELVAAISRAGSTNYADSVKGRFTISRDNAKNTVYLQMNSLKPEDTAVYYCAARGYLWAGEWYVRRDYWGQGTQVTVSS”: the “polyreactivity (PSR sort gate)” value is “high polyreactivity”.

For “QVQLVESGGGLVQAGGSLRLSCAASGSTFPVYAMGWYRQAPGKERELVAAITSGVSTNYADSVKGRFTISRDNAKNTVYLQMNSLKPEDTAFYYCAKDFGLLPIRDDYWGQGTQVTVSS”, the “polyreactivity (PSR sort gate)” value is “low polyreactivity”.

In the case of “QVQLVESGGGLVQAGGSLRLSCAASGSTFPVYAMGWYRQEPGKERELVAAITSGVSTNYADSVKGRFTISRDNAKNTVYLQMNSLKPEDTAVYYCAKDFGLLPIRDDYWGQGTQVTVSS”, the “polyreactivity (PSR sort gate)” value is reported as “low polyreactivity”.

“QVQLVESGGGLVQAGGSLRLSCAASGSTFPWNAMGWYRQAPGKERELVAAIRTGGGRTYYADSVKGRFTISRDNAKNTVYLQMNSLKPEDTAVYYCNAYQSSGRYRNSYGYWGQGTQVTVSS”: the “polyreactivity (PSR sort gate)” value was “high polyreactivity”.

As for “QVQLVESGGGLVQAGGSLRLSCAASGSTFPWYAMGWARQAPGKETELVAAITTSGGTTYYADSVKGRFTISRDNAKNTVYLQMNSLKPEDTAVYYCNKQFGYPWEYYSYSYDYWGQGTQVTVSS”, the “polyreactivity (PSR sort gate)” value is on record as “low polyreactivity”.

For the sequence “QVQLVESGGGLVQAGGSLRLSCAASGSTFPWYAMGWYRQAPGKERELVAAISFSGGSTYYADSVKGRFTISRDNAKNTVYFQMNSLKPEDTAVYYCAAVWGYVIWVDTAVYREYDYWGQGTQVTVSS”, the “polyreactivity (PSR sort gate)” value is given as “high polyreactivity”.

As to “QVQLVESGGGLVQAGGSLRLSCAASGSTFPYYAMGRYRPAPGKEMELVAAISQNGGSSYYADSVKGRFTISRDNAKNTVYLQINSLKPEDTAVYYCNADGVGGEYRLSGYDYWGQGTQVTVSS”, the “polyreactivity (PSR sort gate)” value is recorded as “low polyreactivity”.

“QVQLVESGGGLVQAGGSLRLSCAASGSTFPYYAMGWSRQAPGKERELVAAISGSGGTTYYADSVKGRFTISRDNAKNTVYLQMNSLKPEYTAVYYCAVDIGVGYGYYYWGQGTQVTVSS”: the “polyreactivity (PSR sort gate)” value is on record as “low polyreactivity”.

Take “QVQLVESGGGLVQAGGSLRLSCAASGSTFPYYAMGWYRQAPGKERELVAAISQNGGSTYYADSVKGRFTISRDNAKNTVYLQMNSLKPEDTAVYYCNADGVGGEYRLSGYDYWGQGTQVTVSS”: the “polyreactivity (PSR sort gate)” value was “low polyreactivity”.

As to “QVQLVESGGGLVQAGGSLRLSCAASGSTFPYYAMGWYRQAPGKERELVAAISSSGGSTYYADSVKGRFTFSRDNAKNTVYLLMNSLKPEDTAVYYCNVVKSRGLFSYDYWGQGSQVTVSS”, the “polyreactivity (PSR sort gate)” value is “high polyreactivity”.

Turning to “QVQLVESGGGLVQAGGSLRLSCAASGSTFPYYAMGWYRQAPGKERELVATITTSGVSTYYADSVKGRFTISRDNAKNTVYLQMNSLKPEDTAVYYCAADPPGFTQYGYWGQGTQVTVSS”, the “polyreactivity (PSR sort gate)” value is given as “low polyreactivity”.

Turning to “QVQLVESGGGLVQAGGSLRLSCAASGSTFPYYAMGWYRQAPGKERELVAVITSSGSRTYYADSVKGRFTISRDNAKNTVYLQMNSLKPEDTAVYYCARDTRYYRPYRSQYDYWGQGTQVTVSS”, the “polyreactivity (PSR sort gate)” value is recorded as “high polyreactivity”.

As to “QVQLVESGGGLVQAGGSLRLSCAASGSTFPYYAMGWYRQATGKERELVAAISSGGRTTYADSVKGRFTISRDNAKNTVYLQMNSLKPEDTAVYYCNRRYTHGGFSKYEYWGQGTQVTVSS”, the “polyreactivity (PSR sort gate)” value is “high polyreactivity”.

Take “QVQLVESGGGLVQAGGSLRLSCAASGSTFQFYAMGWYRQAPGKERELVASITSRGGNTHYADSVKGRFTISRDNAKNTVYLQMNSLKPEDTAVYYCAARGGWYGTYDYWGQGTQVTVSS”: the “polyreactivity (PSR sort gate)” value is reported as “low polyreactivity”.

In the case of “QVQLVESGGGLVQAGGSLRLSCAASGSTFQFYAMRWYRQAPGKERDLVAAIRSSDDSTYYADSVKGRFTISRDNAKNTVYLQMKSLKPEDTAVYYCAAVLDFYGVWYDYWGQGTQVTVSS”, the “polyreactivity (PSR sort gate)” value is recorded as “high polyreactivity”.

On to “QVQLVESGGGLVQAGGSLRLSCAASGSTFQGYSMGWYRPAPGKERELVAAISGSGGNTYYADSVKGRFTISRDNAKNTVYLQMNSLKPEDTAVYYCAAGHVRTDWRYGYWGQGTQVTVSS”, for which the “polyreactivity (PSR sort gate)” value is listed as “low polyreactivity”.

Consider “QVQLVESGGGLVQAGGSLRLSCAASGSTFQINAMGWYRQATGTERELGAAIDGGGDTYYADSVKGRFTISRDNAKNTFYLQMNSLKPEDTAVYYCNARSWARKSNGGSRIRYDYWGQGTQVTVSS”, for which the “polyreactivity (PSR sort gate)” value is “low polyreactivity”.

As for “QVQLVESGGGLVQAGGSLRLSCAASGSTFQNNAMGWSRQAPGKERELVAGITGGGGNTNYADSVKGRFTISRDNTKNTVYLQMNSRTPEDTAVYYCAADDPWLGVDFGYWGQGTQVTLSS”, the “polyreactivity (PSR sort gate)” value is recorded as “low polyreactivity”.

“QVQLVESGGGLVQAGGSLRLSCAASGSTFQPYAMGWYRQAPGKERELVAAISWSGVSTSYADSVKGRFTISRDNAKNTVYLQMNSLKPEETAVYYPFYEYYYWVQGTQVTVSS”: the “polyreactivity (PSR sort gate)” value is on record as “low polyreactivity”.

As to “QVQLVESGGGLVQAGGSLRLSCAASGSTFQRYAMGWYRQAPGKERELVAAITSGGSTYYADSVKGRFTISRDNAKNTVYLQMISLKPEDTAVYYCNAAWFYRYGYWGQGTQVTVSS”, the “polyreactivity (PSR sort gate)” value is on record as “high polyreactivity”.

For the sequence “QVQLVESGGGLVQAGGSLRLSCAASGSTFQSNAMGWYRQAPGTEREMVATITRGGGTSYADSVKGRFTISRDNAKNTVYVQMNSLQPEDTAVYYCNARRQRYYTQGRFYYWGQGTQVTVSS”, the “polyreactivity (PSR sort gate)” value is recorded as “high polyreactivity”.

For “QVQLVESGGGLVQAGGSLRLSCAASGSTFQSNARGWYRQAPGKERELVASITSSGVSTYYADSVKGRFTISRDNAKNTVYLQMNSLKPEDTAVYYCAASSYDAYDYGFRFDYWGQGTQVTVSS”, the “polyreactivity (PSR sort gate)” value is listed as “low polyreactivity”.

Regarding “QVQLVESGGGLVQAGGSLRLSCAASGSTFQSYAMGWYRQAPGKERELVAAITTTGTRTYYADSVKGRFTISRDNAKNTVYFQMNSLKPEDTAVYSCNAQRLQAHRTSRRYDYWGQGTQVTVSS”, the “polyreactivity (PSR sort gate)” value is “high polyreactivity”.

As for “QVQLVESGGGLVQAGGSLRLSCAASGSTFQTYAMGWFRQAPGQERELVAAITSGGSTNYADSVKGRFTISRDNAKNTVSLQMNSLKPEDTAVYYCNKKSRRQYDYWGQGTQVTVSS”, the “polyreactivity (PSR sort gate)” value was “low polyreactivity”.
